Here are results for 18 molecules from patent publication US20240043504A1 (published 2024).

The assay addresses SARS-CoV-2 RBD-hFc (SARS-CoV-2). Nature of the assay: Luminex beads.

B1: mAb10920 (antibody, V domains shown)
VH: QVQLVESGGGVVQPGRSLRLSCAASGFTFSYYGMHWVRQAPGKGLEWVAVIWYDGSNKFYADSVKGRFTISRDNSKNTLYLQMNSLRAEDTAVYYCAAARPGYYYGMDVWGQGTTVTVSS
VL: DIQMTQSPSSLSASVGDRVTITCRASQGISNYLAWFQQKPGKAPNSLIYAASSLQRGVPSKFSGSGSGTDFTLTISSLQPEDFATYYCQQYNSYPRTFGQGTKVEIKR
As for B1, the binding result was “binds”.

B2: mAb10930 (antibody, V domains shown)
VH: EVQLVESGGGLVQPGRSLRLSCAASGFTFDDYAMYWVRQAPGKGLEWVSGISWNSGSIGYADSVKGRFTISRDNAKNSLYLQMNSLRAADTALYYCAKDKDWNSRGYYYYGMDVWGQGTTVTVSS
VL: not shown
Consider B2, for which the binding result was “binds”.

B3: mAb10934 (antibody, V domains shown)
VH: not shown
VL: DIQMTQSPSSLSASVGDRVTITCQASQDIWNYINWYQQKPGKAPKLLIYDASNLKTGVPSRFSGSGSGTDFTFTISSLQPEDIATYYCQQHDDLPPTFGQGTKVEIKR
With B3, the binding result is listed as “binds”.

B4: mAb10938 (antibody, V domains shown)
VH: EVQLVESGGGLVQPGGSLRLSCAVSGFTVSSNYMSWVRQAPGKGLEWVSLIYSGGSTFYADSVKGRFTISRHNSKNTLYLQMNSLRAEDTAVYYCAREGGYSYDYNYWGQGTLVTVSS
VL: DIQMTQSPSSLSASVGDRVTITCQASQDIRNYLNWYQQKPGKAPKLLIYDASNLETGVPSRFSGIGSGTDFTFTISSLQPEDIATYYCQQYDNLPITFGQGTRLEIKR
As for B4, the binding result was “binds”.

B5: mAb10935 (antibody, V domains shown)
VH: EVQLVESGGGLVQPGGSLRLSCAASGFTVSSNYMSWVRQAPGKGLEWVSLIYSGGSTYYADSVKGRFTISRHNSKNTLYLQMNSLRSEDTAVYYCARVPLGDYYYGMDVWGQGTTVTVSS
VL: DIQMTQSPSSLSASVGDRVTITCQASQDINKYLNWYQQKPGKAPKLLIYDASNLETGVPSRFSGSGSGTDFTFTISSLQPEDIATYYCQQSDNLPLTFGGGTKVEIKR
B5: the binding result is given as “binds”.

B6: mAb10915 (antibody, V domains shown)
VH: EVQLVESGGGLVQPGGSLRLSCAASGFTVSSNYMNWVRQAPGKGLEWVSVIYSGGSTFYADSVKGRFTISRHNSKNTLYLQMNSLRPEDTAVYYCARDLGGYFDYWGQGTLVTVSS
VL: not shown
On to B6, for which the binding result was “binds”.

B7: mAb10932 (antibody, V domains shown)
VH: EVQLVESGGGLVQSGGSLRLSCAASGLTVSSNYMSWVRQAPGKGLEWVSVIYSGGSTFYSDSVKGRFTISRHNSKNTLYLQMNSLRAEDTAVYYCARARGDAFDIWGQGTMVTVSS
VL: not shown
As for B7, the binding result is listed as “binds”.

B8: mAb10937 (antibody, V domains shown)
VH: QITLKESGPTLVKPTQTLTLTCTFSGFSLSTNVVGVGWIRQPPGKALEWLALIYWNDDKRYSPSLKSRLTITKDTSKNQVVLTMTNMDPVDTATYYCAHGPTGDYFDYWGQGTLVTVSS
VL: not shown
Turning to B8, the binding result is recorded as “binds”.

B9: mAb10936 (antibody, V domains shown)
VH: QVQLVESGGGVVQPGRSLRLSCAASGFTFRNYGMHWVRQAPGKGLEWVSVIWYDGSNRYYADSVKGRFTISRDTSKNTLYLQMNSLRAEDTAVYYCARDPPITGTTGGDAFDIWGQGTMVTVSS
VL: not shown
On to B9, for which the binding result is reported as “binds”.

B10: mAb10969 (antibody, V domains shown)
VH: QVQLVESGGGVVQPGRSLRLSCAASGFTFSSYAMHWVRQAPGKGLEWVAVISYDGSNKYYADSVKGRFTISRDNSKNTLYLQMNSLRAEDTAVYYCARDGRTITMVRGVIDDAFDIWGQGTMVTVSS
VL: not shown
Regarding B10, the binding result is reported as “binds”.

B11: mAb10923 (antibody, V domains shown)
VH: QVQLVQSGAEVKKPGASVKVSCKASGYTFINYYIHWVRQAPGQGLEWMGWINPNSGGTNYAQKFQGRVTMTRDTSISTAYMELSRLRSDDTAVYYCAIITIFGVVTWFDPWGQGTLVTVSS
VL: not shown
B11: the binding result was “binds”.

B12: mAb10984 (antibody, V domains shown)
VH: EVQLVESGGGLVQPGGSLRLSCAASGLTVNRNYMSWVRQAPGKGLEWVSLIYSGGSTYYADSVKGRFTISRDNSKNTLYLQMNSLRLEDTAVYYCARGELGIPYGMDVWGQGTTVTVSS
VL: QSVLTQPPSVSAAPGQKVTISCSGSSSNIGNNYVSWYQQLPGTAPKLLIYDNNKRPSGIPDRFSGSKSGTSATLGITGLQTGDEADYYCGTWDSSLSAGVFGGGTKLTVLG
With B12, the binding result is listed as “binds”.

B13: mAb10921 (antibody, V domains shown)
VH: EVQLVESGGGLVQPGGSLRLSCAASGITVSSNYMSWVRQAPGKGLEWVSVIYSGGSTFYADSVKGRFTISRHNSKNTLYLQMNSLRAEDTAVYYCARERNFDAFDIWGQGTMVTVSS
VL: DIQMTQSPSSVSASVGDRVTITCRASQGISSWLAWYQQKPGKAPKLLIYAASSLQSGVPSRFSGSGSGTDFTLTISSLQPEDFATYYCQQANSFPLFTFGPGTKVDIKR
With B13, the binding result is recorded as “binds”.

B14: mAb10989 (antibody, V domains shown)
VH: QVQLVQSGAEVKKPGASVKVSCKASGYIFTGYYMHWVRQAPGQGLEWMGWINPNSGGANYAQKFQGRVTLTRDTSITTVYMELSRLRFDDTAVYYCARGSRYDWNQNNWFDPWGQGTLVTVSS
VL: QSALTQPASVSGSPGQSITISCTGTSSDVGTYNYVSWYQQHPGKAPKLMIFDVSNRPSGVSDRFSGSKSGNTASLTISGLQAEDEADYYCSSFTTSSTVVFGGGTKLTVLG
In the case of B14, the binding result was “binds”.

B15: mAb10939 (antibody, V domains shown)
VH: EVQLVESGGGLVQPGGSLRLSCAASGLTVSSNYMNWVRQVPGKGLEWVSVIYSGGSKFYVDSVKGRFTISRHNSKNTLYLQMNSLRPEDTAVYYCTRDAQYYGMDVWGQGTTVTVSS
VL: DIQMTQSPSSLSASVGDRVTITCRASQSISTYLHWYQQKPGEAPKLLIYAASSLQSGVPSRFSGSGSGTDFTLTISSLQPEDFATYYCQQSYSTPPEIFGQGTKLEIKR
B15: the binding result is reported as “binds”.

B16: mAb10982 (antibody, V domains shown)
VH: EVQLVESGGGLVQPGGSLRLSCAASGLTVSSNYMSWVRQAPGKGLEWVSVIYSGGTTYYADSVKGRFTISRHNSKNTLSLQMNSLRAEDTAVYYCARGEGANYYGMDVWGQGTTVTVSS
VL: QSVLTQPPSVSGAPGQRVTISCTGSSSNIGTGYDVHWYQQLPGTAPKLLIYGNSNRPSGVPDRFSGSKSGTSASLAITGLQAEDEADYYCQSYDSSLSGYVVFGGGTKLTVLG
As to B16, the binding result is recorded as “binds”.

B17: mAb10986 (antibody, V domains shown)
VH: EVQLVESGGGLVQPGGSLRLSCAASEFTVSSNYMSWVRQAPGKGLEWVSVIYSGGSTFYADSVKGRFTISRDNSKNTLYLQMNSLRAEDTAVYYCARALPYGDLHFDYWGQGTLVTVSS
VL: QSVLTQPPSVSGAPGQRVTISCTGSSSNIGTGYDVHWYQQLPGTAPKLLIYGNTNRPSGVPDRFSGSKSGTSASLAITGLQAEDEADYYCQSYDSSLSDSYVFGTGTKVTVLG
As to B17, the binding result was “binds”.

B18: mAb10985 (antibody, V domains shown)
VH: EVQLVESGGGLVQPGRSLRLSCAASGFTFDDYAMHWVRQAPGKGLEWVSGISWNRGSIGYADSVKGRFTISRDNAKNSLYLQMSSLRAEDTALYYCAKDGERWDSVVVPSARNGMDVWGQGTTVTVSS
VL: QSVLTQPPSVSGAPGQRVTISCTGSSSNIGAGYDVHWYQQLPGTAPKLLIYGNSNRPSGVPDRFSGSKSGTSASLAITGLQAEDEADYYCQSYDSSLSGSYVFGTGTKVTVLG
In the case of B18, the binding result was “binds”.
